T1: GDF15-mFC protein (human; mouse, UniProt Q99988 197-308)
T1 construct: extracellular domain;domain: IgG2a-FC; also called GDF15-mFc fusion protein
T1 sequence (looked up): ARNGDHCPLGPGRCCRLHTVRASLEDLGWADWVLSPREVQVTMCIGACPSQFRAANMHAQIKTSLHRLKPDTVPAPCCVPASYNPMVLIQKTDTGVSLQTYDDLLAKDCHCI

T2: GDF15-HIS (ACROBiosystems, CAT #: GD5-H5149) (human, UniProt Q99988 197-308)
T2 construct: Bought protein; also called GDF15 (ACROBiosystems, GD5-H5149); human GDF15; not shown: His tag
T2 sequence (looked up): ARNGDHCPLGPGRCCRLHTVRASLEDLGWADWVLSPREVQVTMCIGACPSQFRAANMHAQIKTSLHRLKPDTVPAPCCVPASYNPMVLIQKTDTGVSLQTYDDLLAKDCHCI

T3: cynoGDF15-mFC (monkey (cyno); mouse, UniProt G7PWZ3 197-308)
T3 construct: also called monkey GDF15 (cynoGDF15)
T3 sequence (looked up): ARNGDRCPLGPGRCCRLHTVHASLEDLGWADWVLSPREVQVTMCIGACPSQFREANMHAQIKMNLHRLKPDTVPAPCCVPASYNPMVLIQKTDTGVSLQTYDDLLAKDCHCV


How the values were obtained:
[1] = biological target: T1, GDF15-mFC protein; assay: blocking ELISA as in Example 4, GFRAL-hIgG1 Fc coated (competitor), GDF15-mFC mixed with antibody
Protocol: A fusion protein comprising the extracellular region of GFRAL protein (Genbank accession number NM_207410.2) and human IgG1-FC (Genbank accession number CAC20454.1) was diluted to […] with coating solution, followed by adding to ELISA plate at 50 μl/well and incubating at 4° C. overnight. The solution in the wells was discarded and the plate was washed 3 times with washing solution, each time for 3-5 minutes, and dried via tapping. 200 μl of blocking solution was added to each well followed by incubating at 4° C. overnight. The plate was washed 3 times with washing solution, and the coated plate may be stored at −20° C. or 4° C. for future use.
The antibodies to be tested, positive control antibody AV380-mIgG1 and blank control (PBS) were added to the wells. […] At the same time, GDF15-mFC protein (GDF15: Genbank accession number NM_004864.3; mFC: Genbank accession number AAH31470.1) was added at 20 ng/well and mixed with the antibodies to be tested. The wells were incubated at 37° C. for 1 hour, washed, and dried via tapping. Then the enzyme-labeled secondary antibody, horseradish peroxidase-labeled goat anti-mouse IgG (SIGMA, catalog number A9044-2 ml) was added to each well, at a dilution of 1:10000, 50-100 μl/well. The wells were incubated at 37° C. for 2 hours, washed, and dried via tapping. 100 μl of freshly prepared developing solution TMB was added to each well and incubated at 37° C. for 30 minutes. 2 mol/L H₂SO₄ was added to terminate the reaction, and the OD value was obtained on an enzyme-linked immunosorbent reader.
(§1) The experiment was performed as detailed in Example 4, except that the antibodies to be tested (the humanized antibodies), negative control antibody (hIgG1), and positive control antibodies Ponsegromab and AV380-hIgG1 were added to each well of the coated plate.

[2] = biological target: T1, GDF15-mFC protein; assay: competitive ELISA, GFRAL-HIS coated (competitor), GDF15-mFc 0.3 µg/ml pre-incubated with antibody
Protocol: GFRAL-HIS protein (ACROBiosystems, GFA-H52H3) was dissolved in PBS at a concentration of […] and was used to coat ELISA 96-well plate one day before blocking the plate with 2% BSA in PBS. 53E5 (hz), and control antibodies Ponsegromab and AV380-hIgG1 were 3.16-fold diluted for 10 gradients with a starting concentration of 20 μg/ml. At the same time, GDF15-mFc protein was added at a final concentration of 0.3 μg/ml. After incubation at room temperature for 1 hour, the mixtures were added to 96-well plate coated with GFRAL-HIS. After incubated at room temperature for 1 hour, the plate was washed and then HRP-anti-mouse IgG was added to the plate. After incubation at room temperature for 1 hour, the HRP enzyme activity (OD450) was detected. The HRP enzyme activity represents the relative amount of GDF15-mFc protein bound to GFRAL. The OD450 values and antibody concentrations were plotted. The dose-effect curve was fitted using the log (agonist) vs. response-variable slope (four-parameter) Logistic model to calculate IC50.

[3] = biological target: T2, GDF15-HIS (ACROBiosystems, CAT #: …); assay: BLI (ForteBio Octet), antibody immobilised, GDF15 200-6.25 nM
[4] = biological target: T2, GDF15-HIS (ACROBiosystems, CAT #: …); assay: ELISA, GDF15-HIS coated
Protocol: The experiment was performed as detailed in Example 2, except that the coating protein was GDF15-HIS (ACROBiosystems, CAT #: GD5-H5149), and the antibodies to be tested (the humanized antibodies), negative control antibody (hIgG1), positive control antibodies Ponsegromab (Pfizer; Drug Bank: D11909) and AV380-hlgG1 (the heavy chain and light chain constant regions of AV380-mIgG1 were replaced with the constant regions of human IgG, i.e., SEQ ID NO. 5 and SEQ ID NO. 6) were added to each well of the coated plate.

[5] = biological target: T3, cynoGDF15-mFC; assay: ELISA, cynoGDF15-mFC coated
Protocol: as §1, with “2,” for “4,”, “that the coating protein was cynoGDF15-mFC (GDF15: Genbank accession number EHH29815.1; mFC: Genbank accession number AAH31470.1), and” for “that”

[6] = biological target: T2, GDF15-HIS (ACROBiosystems, CAT #: …); assay: cell-based or functional assay
[7] = biological target: T2, GDF15-HIS (ACROBiosystems, CAT #: …); assay: ELISA in stability test, antibody after pH 3.6 for 2-4 h; coated antigen not named
Protocol: An appropriate amount of each antibody was taken and adjusted to 5 mg/mL in storage buffer adjusted to pH 3.6 using an ultrafiltration tube. The antibodies were placed at room temperature for 2-4 hours, then protein aggregation was detected using SEC-HPLC, and protein binding activity change was detected by ELISA.

[8] = biological target: T2, GDF15-HIS (ACROBiosystems, CAT #: …); assay: ELISA on human GDF15, antibody after 2 weeks at 37 °C in plasma
Protocol: (§2) […] of the antibodies to be tested (final concentration 1 mg/ml) were added to 200 μl of plasma and PBS, respectively, tightly sealed and placed at 37° C. for 2 weeks. The change of protein binding activity was detected by ELISA.

[9] = biological target: T2, GDF15-HIS (ACROBiosystems, CAT #: …); assay: ELISA in stability test, antibody after 40 °C for 2 weeks; coated antigen not named
Protocol: (§3) An appropriate amount of each antibody was taken and adjusted to 10 mg/mL, and was placed at 40° C. for 1 and 2 weeks. Protein aggregation was detected using SEC-HPLC, and protein binding activity change was detected by ELISA.

[10] = biological target: T2, GDF15-HIS (ACROBiosystems, CAT #: …); assay: ELISA on human GDF15, antibody after 2 weeks at 37 °C in PBS
Protocol: as §2

[11] = biological target: T2, GDF15-HIS (ACROBiosystems, CAT #: …); assay: ELISA in stability test, antibody after 5 freeze-thaw cycles; coated antigen not named
Protocol: An appropriate amount of each antibody was taken and adjusted to 10 mg/mL, followed by freezing at −80° C. for 10 min, and placing in an ice-water mixture to slowly thaw. The above procedure was repeated 5 times. Protein aggregation was detected using SEC-HPLC, and protein binding activity change was detected by ELISA.

[12] = biological target: T2, GDF15-HIS (ACROBiosystems, CAT #: …); assay: ELISA in stability test, antibody before treatment; coated antigen not named
[13] = biological target: T2, GDF15-HIS (ACROBiosystems, CAT #: …); assay: ELISA in stability test, antibody after 40 °C for 1 week; coated antigen not named
Protocol: as §3

| IC50 [1] [µg/mL] | IC50 [2] [µg/mL] | Kd [3] [pM] | koff [3] [s⁻¹] | kon [3] [M⁻¹ s⁻¹] | EC50 [4] [µg/mL] | OD450.Max [4] [OD450] | EC50 [5] [µg/mL] | OD450.Max [5] [OD450] | Bottom (luciferase activity fold, fitted curve), HEK293 SRE-LUC2-cRET-GFRAL reporter cells [6] | IC50, luciferase in HEK293 SRE-LUC2-cRET-GFRAL reporter cells stimulated with GDF15-His 5 ng/ml [6] [µg/mL] | OD450.Max [1] [OD450] | EC50 [7] [µg/mL] | EC50 [8] [µg/mL] | EC50 [9] [µg/mL] | EC50 [10] [µg/mL] | EC50 [11] [µg/mL] | EC50 [12] [µg/mL] | EC50 [13] [µg/mL] | Binder |
| --- | --- | --- | --- | --- | --- | --- | --- | --- | --- | --- | --- | --- | --- | --- | --- | --- | --- | --- | --- |
| 0.231 | 0.231 | 84.5 | 6.91e-05 | 817000 | 0.0823 | 1.07 | 0.0741 | 1 | 1.03 | 0.0447 |  |  |  |  |  |  |  |  | AV380-hIgG1 (antibody, also called AV380-hlgG1) heavy: not shown light: DIQMTQSPASLSASVGETVTITCRTSENLHNYLAWYQQKQGKSPQLLVYDAKTLADGVPSRFSGSGSGTQYSLKINSLQPEDFGSYYCQHFWSSPYTFGGGTKLEIKRTVAAPSVFIFPPSDEQLKSGTASVVCLLNNFYPREAKVQWKVDNALQSGNSQESVTEQDSKDSTYSLSSTLTLSKADYEKHKVYACEVTHQGLSSPVTKSFNRGEC |
| 0.283 |  | 266 | 0.000257 | 967000 | 0.0827 | 1.05 | 0.0775 | 1.03 |  |  | 1.1 | 0.0691 | 0.0413 | 0.0296 | 0.113 | 0.0673 | 0.0412 | 0.0643 | 53A8(hz) (antibody, human IgG1, kappa, V domains shown, also called humanized antibody 53A8) VH: QVQLQESGPGLVKPSETLSLTCTFSGFSLSTSGMGVGWIRQPPGKGLEWLAHIRWDDVKRYNPALKSRLTISKDTSKSQISLKLSSVTAADTAVYYCAQMAWDWFAYWGQGTTVTVSS VL: DIQMTQSPSSLSASVGDRVTITCKASQNVDTDVAWYQQKPGQSPKALIYSASYRYSGVPSRFSGSGSGTDFTLTISSLQPEDFATYYCHQYNSYPTFGQGTRLEIKR |

Source: patent US20250092124A1 (YUNNAN BAIYAO GROUP, published 2025)
